B1: rACTWT (recombinant wild type alpha-1-antichymotrypsin) (protein, human)
chain: HHHHHHHPNSPLDEENLTQENQDRGTHVDLGLASANVDFAFSLYKQLVLKAPDKNVIFSPLSISTALAFLSLGAHNTTLTEILKGLKFNLTETSEAEIHQSFQHLLRTLNQSSDELQLSMGNAMFVKEQLSLLDRFTEDAKRLYGSEAFATDFQDSAAAKKLINDYVKNGTRGKITDLIKDLDSQTMMVLVNYIFFKAKWEMPFDPQDTHQSRFYLSKKKWVMVPMMSLHHLTIPYFRDEELSCTVVELKYTGNASALFILPDQDKMEEVEAMLLPETLKRWRDSLEFREIGELYLPKFSISRDYNLNDILLQLGIEEAFTSKADLSGITGARNLAVSQVVHKAVLDVFEEGTEASAATAVKITLLSALVETRTIVRFNRPFLMIIVPTDTQNIFFMSKVTNPKQA
B2: AATE8, P01009 25-418 (protein, human)
chain: HHHHHHEDPQGDAAQKTDTSHHDQDHPTFNKITPNLAEFAFSLYRQLAHQSNSTNIFFSPVSIATAFAMLSLGTKADTHDEILEGLNFNLTEIPEAQIHEGFQELLRTLNQPDSQLQLTTGNGLFLSEGLKLVDKFLEDVKKLYHSEAFTVNFGDTEEAKKQINDYVEKGTQGKIVDLVKELDRDTVFALVNYIFFKGKWERPFEVKDTEEEDFHVDQVTTVKVPMMKRLGMFNIQHCKKLSSWVLLMKYLGNATAIFFLPDEGKLQHLENELTHDIITKFLENEDRRSASLHLPKLSITGTYDLKSVLGQLGITKVFSNGADLSGVTEEAPLKLSKAVHKAVLTIDEKGTEAAGAMFLEALQRAIPPEVKFNKPFVFLMIEQNTKSPLFMGKVVNPTQK
B3: AATG1g, P01009 25-418 (protein, human)
chain: B2 chain with A361G, L362S, Q363L, A365G
B4: AATG9, P01009 25-418 (protein, human)
chain: B2 chain with A361T, L362V, Q363D, R364Y
B5: AATC11, P01009 25-418 (protein, human)
chain: B2 chain with L362I, Q363P, A365Q, I366T, P367N
B6: AATG1, P01009 25-418 (protein, human)
chain: B2 chain with A361G, L362S, Q363L, A365S
B7: ACTE8, P01011 24-423 (protein)
chain: MRGSHHHHHHSRHPNSPLDEENLTQENQDRGTHVDLGLASANVDFAFSLYKQLVLKAPDKNVIFSPLSISTALAFLSLGAHNTTLTEILKGLKFNLTETSEAEIHQSFQHLLRTLNQSSDELQLSMGNAMFVKEQLSLLDRFTEDAKRLYGSEAFATDFQDSAAAKKLINDYVKNGTRGKITDLIKDLDSQTMMVLVNYIFFKAKWEMPFDPQDTHQSRFYLSKKKWVMVPMMSLHHLTIPYFRDEELSCTVVELKYTGNASALFILPDQDKMEEVEAMLLPETLKRWRDSLEFREIGELYLPKFSISRDYNLNDILLQLGIEEAFTSKADLSGITGARNLAVSQVVHKAVLDVFEEGTEASAATAVKILQRAILVETRTIVRFNRPFLMIIVPTDTQNIFFMSKVTNPKQA
B8: ACTG9, P01011 24-423 (protein)
chain: B7 chain with I369T, L370V, Q371D, R372Y, I374A
B9: ACTC11, P01011 24-423 (protein)
chain: B7 chain with L370T, Q371L, A373Q, I374T, L375N
B10: ACTC11D, P01011 24-423 (protein)
chain: B7 chain with L370T, Q371L, A373Q, I374T, L375N, V376D
B11: rACTWT (recombinant wild type alpha-1-antichymotrypsin), P01011 24-423 (protein, human)
chain: B1 chain

Residue numbers refer to the chain shown, from its start.
Also: test concentration or dose not given here.

For the first assay, the target named is T1, human kallikrein 14 (hK14) (human) (UniProt Q9P0G3).
T1 sequence (looked up): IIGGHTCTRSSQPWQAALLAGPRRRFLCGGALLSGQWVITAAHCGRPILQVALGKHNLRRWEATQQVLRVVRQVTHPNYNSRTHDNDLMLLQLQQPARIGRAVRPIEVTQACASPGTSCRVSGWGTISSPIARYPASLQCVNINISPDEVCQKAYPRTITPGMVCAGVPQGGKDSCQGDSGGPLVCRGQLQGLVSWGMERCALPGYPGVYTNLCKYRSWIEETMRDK
In words: cell-based or functional assay.
In the case of B1, the % Inhibition (as a rule, the share of the control response that was lost under treatment) was found to be 17% and the Percentage inhibition was found to be 17%.

The next assay concerns the target trypsin (human), P07477. In words: cell-based or functional assay.
Take B2: the % Inhibition turned out to be 100% and the Percentage inhibition worked out at 100%.

Turning to B3, the % Inhibition was 100%.

Regarding B4, the % Inhibition amounted to 0% and the Percentage inhibition worked out at 0%.

Turning to B5, the % Inhibition came to 100%.

B6: the % Inhibition amounted to 100%.

B7 came in with a % Inhibition of 100% and a Percentage inhibition of 100%.

Consider B8, for which the Percentage inhibition stood at 0%.

For B9, the % Inhibition turned out to be 100%.

On to B10, for which the % Inhibition was determined as 100%.

For the molecule B11, the % Inhibition is 0% and the Percentage inhibition stood at 0%.

Source of the values: patent publication US20140341881A1.
